Laboratory results as given in paper PMC10329633, “Molecular basis and design principles of switchable front-rear polarity and directional migration in Myxococcus xanthus” (Nature Communications, 2023).
“And” between values parts separate entries of the source, which are not always exact repeats. Identical values can stand only once.

What was measured:
[1] = molecular target: MalE-MglC (Myxococcus xanthus); experiment: mass photometry; single proteins in solution, diluted into phosphate-buffered saline; MalE-RomR and MalE-RomR^C at 25 nM and 50 nM
[2] = molecular target: MalE-MglC (Myxococcus xanthus); experiment: mass photometry; mixtures of MalE-MglC with MalE-RomR or MalE-RomR^C in solution, diluted into phosphate-buffered saline
[3] = molecular target: MalE-RomR^C (Myxococcus xanthus); experiment: mass photometry; single proteins in solution, diluted into phosphate-buffered saline; MalE-RomR and MalE-RomR^C at 25 nM and 50 nM
[4] = molecular target: MalE-RomR (Myxococcus xanthus); experiment: as above
MglA-His6 = molecular target: T1, MglA-His6 (Myxococcus xanthus, UniProt Q1DB04 1-195); experiment: pull-down; Strep-MglC as bait on Strep-Tactin beads; 40 µM GppNHp in all buffers; without or with MglA-His6 preincubated with GppNHp; proteins 10 µM; MglB detected by immunoblot with α-MglB; conditions: both partners purified
T1 construct: MglA, small GTPase of Myxococcus xanthus; Preloaded with GTP, GppNHp or GDP (40 µM) according to the experiment; the nucleotide is named in the assay's format; also called MglA-GTP; source: E. coli Rosetta 2(DE3), purified (Ni-NTA, Superdex 75 gel filtration); not shown: His6, C-terminal, kept
T1 sequence: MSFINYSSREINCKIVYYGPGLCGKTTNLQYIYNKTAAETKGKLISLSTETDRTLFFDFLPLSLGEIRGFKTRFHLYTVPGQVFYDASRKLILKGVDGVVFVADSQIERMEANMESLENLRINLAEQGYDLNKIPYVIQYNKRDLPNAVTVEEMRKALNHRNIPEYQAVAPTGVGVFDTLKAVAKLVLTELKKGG

Molecule MalE-MglC (natural protein) has a stoichiometry N [1] of 2.

For MalE-RomR^C (domain or fragment), the stoichiometry N (RomR^C per MglC (printed as 2:2)) [2] was 1, the stoichiometry N (RomR^C per MglC (printed as 3:2)) [2] was 1.5 and the stoichiometry N [3] was 2 and 3.

In the case of MalE-RomR (natural protein), the stoichiometry N (RomR per MglC (printed as 2:2)) [2] is reported as 1, the stoichiometry N (RomR per MglC (printed as 3:2)) [2] is reported as 1.5 and the stoichiometry N [4] is reported as 2 and 3.

B1: His6-MglB (natural protein, Myxococcus xanthus)
chain: MGTQLVMYEEEFTKINAVCDRLTKDANAKVVFLVDKNGQLISSAGQTQNIDTTSLASLTAGNVAAMGGLAKLIGENEFPNQFHEGAKDSLYMTIVGSRVVLVVIFDNRTSLGLVRLRIKKASDELTKIFESLVKKTDSPGAGSPFAEISDDDIDNLFSE
notes: also called MglB-His6; MglB^WT; source: E. coli Rosetta 2(DE3), purified (Ni-NTA, Superdex 75 gel filtration); not shown: His6, N-terminal, kept
B1: binds (MglA-His6).
